Results taken from the supplement of paper PMC10567573.
± gives the standard deviation.

Test: protein stability index of a GFP-peptide fusion (GPS, HEK-293T) (PSI 1-6); higher = more stable
[1] = treatment: DMSO, c terminus: a fixed tail appended
[2] = treatment: MLN4924 1 uM, 8 h, c terminus: a fixed tail appended
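Note: 24-mer peptide tiles fused after GFP, lentivirally expressed, FACS-sorted into six equal bins by GFP/DsRed ratio, decoded by Illumina sequencing, PSI is the read-weighted mean bin number.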

| Sequence | protein stability index [1] | protein stability index [2] | protein stability index (treatment: DMSO, c terminus: native) | protein stability index (treatment: MLN4924 1 uM, 8 h, c terminus: native) |
| --- | --- | --- | --- | --- |
| QQPSLNTMIQQQNMQQPMNVMTQS [CLINT1] | 4.41 ± 0.21 | 4.52 ± 0.087 | – | – |
| QQYRQDQRDGSKSEDELDQASTPT [CCND2] | 5.45 ± 0.2 | 5.39 ± 0.12 | – | – |
| QRLEEQERRHREEKERRKKQQWEI [RSPH3] | 4.45 ± 0.28 | 4.54 ± 0.31 | – | – |
| QSKTASDKSPSTVRDQGPSIPLTP [FBF1] | 5.07 ± 0.21 | 5.15 ± 0.099 | – | – |
| QTALLESSCENKRADLVFIIDSSR [MATN2] | 3.05 ± 0.24 | 3.24 ± 0.28 | – | – |
| QTEELKYSIDQEFLKEYFPIEVVT [NLN] | 3.23 ± 0.37 | 3.49 ± 0.29 | – | – |
| QTYFRQNRDEVLDNLLAFVCDIRP [ATP6V1G1] | 2.64 ± 0.44 | 2.27 ± 0.23 | – | – |
| RAAQLQHSEKMAQYLEEERHMREE [CCDC6] | 5.15 ± 0.25 | 5 ± 0.46 | – | – |
| RAPSERSGPAASEHSHRSHHSLAS [DVL3] | 4.68 ± 0.28 | 4.68 ± 0.21 | – | – |
| RDFHRKILTLPEMMRMFSENLAHH [TRIM15] | 2.25 ± 0.17 | 2.31 ± 0.051 | – | – |
| RDNPMCLKCDLQERLLCPSLLAGT [M1AP] | 2.28 ± 0.14 | 2.16 ± 0.23 | – | – |
| RDQQVEAAQRALVEVLGPYEPLLS [RETREG3] | 3.9 ± 0.17 | 4.14 ± 0.17 | – | – |
| REESLPNLLQYVRMPLLTPRYITD [KLHL12] | 2.8 ± 0.38 | 2.63 ± 0.34 | – | – |
| RELRKPEEPENGEPTAAATARRSK [PWWP2B] | 5.54 ± 0.16 | 5.51 ± 0.35 | – | – |
| RGCSRVEGGGTSLHVACELARPEC [ANKRD9] | 3.62 ± 0.3 | 3.69 ± 0.18 | – | – |
| RGELSARQMHLARFLRMLLRLADE [RAD51] | 2.2 ± 0.27 | 2.42 ± 0.4 | – | – |
| RGQCLLYNWEEERATNHLDQVPSM [SPAG8] | 3.13 ± 0.16 | 3.58 ± 0.42 | – | – |
| RGRAVLREAGFHQYEVSNFARNGA [RSAD1] | 3.36 ± 0.54 | 3.37 ± 0.48 | – | – |
| RGVHCWVCDESVRKLSSAVRSGIV [PRIM1] | 2.24 ± 0.22 | 2.19 ± 0.14 | – | – |
| RHKSGVHQPPQAGAGDVVLLQREL [LYSMD4] | 4.08 ± 0.22 | 4.16 ± 0.092 | – | – |
| RHMREENLRLQRKLQREMERREAL [CCDC6] | 3.96 ± 0.36 | 4.39 ± 0.15 | – | – |
| RHQRIHTGERPYECNECGKAFSRS [ZSCAN9] | 3.29 ± 0.24 | 3.82 ± 0.31 | – | – |
| RILQDEQYLMASDMAGKIKLWDLR [DCAF4] | 2.75 ± 0.34 | 3.01 ± 0.12 | – | – |

| Sequence | protein stability index [1] | protein stability index [2] | protein stability index (treatment: DMSO, c terminus: native) | protein stability index (treatment: MLN4924 1 uM, 8 h, c terminus: native) |
| --- | --- | --- | --- | --- |
| RITITESNMKSRYTTEFHELEKIG [WEE1] | 3.03 ± 0.37 | 3.59 ± 0.55 | – | – |
| RKDLAKLHREVRSTPLTATPGGRG [VTI1B] | 4.38 ± 0.17 | 4.45 ± 0.17 | – | – |
| RKKSKPKKCVKKFVEYCDVNNDKS [SMOC2] | 3.52 ± 0.22 | 3.93 ± 0.58 | – | – |
| RKMEVEELSPLALGRFSLTPAEGD [CDC25B] | 4.66 ± 0.36 | 4.79 ± 0.13 | – | – |
| RKVVQSLEQTAREILTLLQGVHQG [TSN] | 2.34 ± 0.31 | 2.81 ± 0.53 | – | – |
| RLFPYSQYYRWLNYGGVIKNYFQH [PRIM1] | 2.15 ± 0.75 | 2.22 ± 0.52 | – | – |
| RLFTVNDVKVGGSKYGIINLQSLK [DCAF4] | 2.14 ± 0.14 | 2.27 ± 0.37 | – | – |
| RLLELMNQHDTEMKYYIVHLKRHF [DYRK1B] | 2.35 ± 0.22 | 2.54 ± 0.48 | – | – |
| RLSSRYRYGQLIEINSHSLFSKWF [TRIP13] | 2.12 ± 0.28 | 2.04 ± 0.38 | – | – |
| RMKEPSSPPPAPTSSTFGLQDGNL [CHCHD6] | 4.63 ± 0.26 | 4.53 ± 0.35 | – | – |
| RMLIHKTEDVNTLDSEKRTPLHVA [ANKRD44] | 4.06 ± 0.22 | 4.15 ± 0.39 | – | – |
| RNHMENGGDHRYVNNYTNSFGGEW [TRIM29] | 3.13 ± 0.16 | 3.15 ± 0.2 | – | – |
| RNRPKSTVNTHYFSIDEELVYENF [CDC14A] | 2.99 ± 0.37 | 3.39 ± 0.38 | – | – |
| RPDRSSQGGSLPSEEKGHPQEESE [CHGB] | 5.75 ± 0.27 | 5.48 ± 0.38 | – | – |
| RPEKHTKEQILEFLVLEQFLTILP [ZNF232] | 3.03 ± 0.62 | 3.4 ± 0.66 | – | – |
| RPFWEEEKTFWKEEKSFWEMEKSF [CCDC70] | 2.71 ± 0.2 | 3.19 ± 0.26 | – | – |
| RPLARPIKRGDILPPEKGREVAKE [RHOBTB1] | 5.17 ± 0.088 | 4.97 ± 0.12 | – | – |
| RPPFGAAAVPGTQLSPSPTPASQS [SNAP91] | 4.79 ± 0.16 | 4.86 ± 0.055 | – | – |
| RPPLRRVRMSADAMLKALLGSKHK [TNNI2] | 3.01 ± 0.28 | 3.21 ± 0.29 | – | – |
| RQAELAIERCIFPERIYQGSSGSY [PI4K2A] | 2.72 ± 0.39 | 2.82 ± 0.28 | – | – |
| RQNDILQVVSQGWKYFKGNFYYFS [CD207] | 2.3 ± 0.73 | 2.06 ± 0.58 | – | – |
| RQNSAPARMLSSNERDSSEPGNFI [CDC25A] | 5.54 ± 0.31 | 5.45 ± 0.14 | – | – |
| RRDCMWSGFSARERLERAVSDRLA [MYCL] | 3.31 ± 0.23 | 3.4 ± 0.18 | – | – |

| Sequence | protein stability index [1] | protein stability index [2] | protein stability index (treatment: DMSO, c terminus: native) | protein stability index (treatment: MLN4924 1 uM, 8 h, c terminus: native) |
| --- | --- | --- | --- | --- |
| RRKSEAGSGAASSSGEDKENDGFV [CDC25B] | 5.42 ± 0.29 | 5.49 ± 0.18 | – | – |
| RRRGSDPASGEVEASQLRRLNIKK [TMEM40] | 5.26 ± 0.23 | 5.02 ± 0.24 | – | – |
| RRRPRQKEAGLSQSHDDLSNATAT [C2CD2L] | 5.23 ± 0.19 | 5.26 ± 0.24 | – | – |
| RRTPPGQQRPHPRSHSREPRAERK [ELOA2] | 5.332 ± 0.008 | 5.58 ± 0.17 | – | – |
| RSDVEKGGKIIMPPSALDQLSRLN [UFD1] | 3.55 ± 0.41 | 3.97 ± 0.28 | – | – |
| RSLQLRIQELELQAQIHGLPVPPT [TFE3] | 3.01 ± 0.19 | 2.89 ± 0.21 | – | – |
| RSNVDFLETPELTSTMLVPASWWI [NECAB1] | 2.21 ± 0.43 | 2.23 ± 0.48 | – | – |
| RTMAPEKLLKSMPILQGQIDALLE [SNAP91] | 2.83 ± 0.16 | 2.89 ± 0.27 | – | – |
| RTPLMYCVLADRLDCADALLKAGA [INVS] | 2.16 ± 0.35 | 2.08 ± 0.15 | – | – |
| RTRDYKKTSLAPYVKVFEHFLENL [PRIM1] | 2.11 ± 0.4 | 2.48 ± 0.54 | – | – |
| RTSVGVAVLGGFLYAVGGQDGVSC [KLHL20] | 2.37 ± 0.17 | 2.45 ± 0.38 | – | – |
| RVEASHLTTSQERELGIRQRDEQL [FBF1] | 4.91 ± 0.22 | 5.13 ± 0.22 | – | – |
| RVEVLTDAGGWVLIDRSGRHFGTI [KCTD13] | 2.37 ± 0.46 | 2.38 ± 0.7 | – | – |
| RVRTVLNEKQLHTLRTCYAANPRP [ISL2] | 2.74 ± 0.27 | 2.96 ± 0.2 | – | – |
| RVRVELQEQNGRLQAELAAQEALR [LRRC45] | 4.58 ± 0.079 | 3.98 ± 0.55 | – | – |
| RYADLEAVNRARRPLARPIKPNEI [RHOBTB2] | 3.77 ± 0.21 | 3.7 ± 0.22 | – | – |
| RYHVIRKLGWGHFSTVWLCWDMQG [SRPK2] | 2.83 ± 0.74 | 2.69 ± 0.27 | – | – |
| RYLFEEDNLLRSTQKLSHSTKPSG [MATN2] | 3.82 ± 0.3 | 3.92 ± 0.3 | – | – |
| RYPTISMVKPLLHMLLNTTLNIKE [ZBED1] | 2.83 ± 0.58 | 3.37 ± 0.72 | – | – |
| RYQHGIAVIGNFLYVVGGQSNYDT [KLHL13] | 2.42 ± 0.49 | 2.44 ± 0.5 | – | – |
| SAARVVLTSLLACLPAGPRVYFLK [DUSP5] | 2.43 ± 0.23 | 2.41 ± 0.12 | – | – |
| SAFADIIHSLKESGQLWLDAYLHQ [FADS1] | 2.16 ± 0.4 | 2.25 ± 0.49 | – | – |
| SATLSWKQPPLSTVPADGYILELD [TRIM9] | 3.52 ± 0.33 | 3.63 ± 0.37 | – | – |

| Sequence | protein stability index [1] | protein stability index [2] | protein stability index (treatment: DMSO, c terminus: native) | protein stability index (treatment: MLN4924 1 uM, 8 h, c terminus: native) |
| --- | --- | --- | --- | --- |
| SCTPRMNRRMVGPDVIPLPHIYGA [FAM189A2] | 2.23 ± 0.22 | 2.27 ± 0.2 | – | – |
| SDKETDIDDRYGDLDSRTDSDIPE [CDS1] | 5.54 ± 0.31 | 5.43 ± 0.27 | – | – |
| SDLTLYLVVAVAAVSCVFLAFVIV [PCDHGA10] | 2.97 ± 0.61 | 2.71 ± 0.5 | – | – |
| SDVIEYAKQKLDFFIRTSDSFDKF [PCMTD2] | 2.36 ± 0.22 | 2.48 ± 0.19 | – | – |
| SEADPQALLQAMKDLDGMDADILG [FBF1] | 5.28 ± 0.25 | 5.16 ± 0.35 | – | – |
| SEEELAAATTSKEQEPIGTDLDAV [MYBL2] | 5.71 ± 0.19 | 5.58 ± 0.25 | – | – |
| SEEIRFYQLGEEAMEKFREDEGFL [KCNA3] | 4.37 ± 0.27 | 4.44 ± 0.12 | – | – |
| SEMEEEKRQAVNKAVANMQGEMDR [ZMYND11] | 5.41 ± 0.25 | 5.42 ± 0.29 | – | – |
| SESNSATVEEPPTDPIPEDEKKE [SMARCE1] | – | – | 5.58 ± 0.47 | 5.41 ± 0.1 |
| SFCHGSSLKRHLKTHTGEKPHRCH [ZNF449] | 3.45 ± 0.27 | 3.61 ± 0.34 | – | – |
| SFPPSLSSSSSSSPTSGSPRGSHS [LURAP1L] | 4.96 ± 0.2 | 5.01 ± 0.16 | – | – |
| SFTSSDKTIKSFFPHSGKDCLLCF [C8orf76] | 2.47 ± 0.51 | 1.9 ± 0.44 | – | – |
| SGLDSPSHAAPGPSPDSWVPRPGT [FCHO1] | 4.08 ± 0.18 | 4.25 ± 0.19 | – | – |
| SGREHNFTRPNEKGEYEVAEGIGS [BTBD10] | 5.11 ± 0.25 | 4.99 ± 0.33 | – | – |
| SGRTQAQTRRASALIDRPAPYFER [EPB41L3] | 3.5 ± 0.56 | 3.72 ± 0.36 | – | – |
| SGSLEILQLLLGCKARMERDGYGM [FEM1A] | 2.92 ± 0.51 | 3.05 ± 0.6 | – | – |
| SGVCLFAVFIALLPILGHRDYKIQ [PTGFR] | 3.6 ± 0.45 | 3.37 ± 0.12 | – | – |
| SHSASATGNVCIEEIDVDGKFIRL [LMNB1] | 3.14 ± 0.22 | 3.48 ± 0.23 | – | – |
| SHSCYHDTRSGFWYVCRTQGVEGD [TRIM35] | 2.52 ± 0.27 | 2.36 ± 0.29 | – | – |
| SIGLRDYAGNLHESGVHGALLALD [PPFIA4] | 3.48 ± 0.11 | 3.73 ± 0.45 | – | – |
